Patent US20240360208A1 (Hoffmann-La Roche, published 2024)
Numbering of substitutions follows the chain as printed. Values belong to the binder of their own block, whether it stands above or below them.

Key:
[1] = molecular target: T1, human CCL2 (MCP1) - P8A variant (human, UniProt P13500 24-99); assay: number printed over the column of sensorgrams; the assay and the CCL2 form behind the number are not stated on the sheet (the sensorgrams are on monomeric CCL2)
T1 construct: In-house point mutant that cannot dimerise; also called monomeric human CCL2; monomeric CCL2

[2] = molecular target: T2, human CCL2 (MCP1) - wild type (wt) (human, UniProt P13500 24-99); assay: cell-based or functional assay
[3] = molecular target: T3, human FcγRIIb receptor on CHO-K1 cells (clone 223) (human, UniProt P31994 43-310); assay: cell-based or functional assay
T3 sequence (looked up): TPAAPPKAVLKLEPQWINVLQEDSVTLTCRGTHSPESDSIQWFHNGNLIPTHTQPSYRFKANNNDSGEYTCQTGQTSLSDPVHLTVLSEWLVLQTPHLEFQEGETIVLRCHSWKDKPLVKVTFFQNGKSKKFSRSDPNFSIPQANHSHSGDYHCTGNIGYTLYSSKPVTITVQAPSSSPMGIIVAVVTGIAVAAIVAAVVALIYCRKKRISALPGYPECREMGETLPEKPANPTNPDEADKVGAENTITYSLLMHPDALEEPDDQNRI

[4] = molecular target: T4, human CCL8 (MCP2) - wild type (wt) (human, UniProt P80075 24-99); assay: SPR (Biacore T200), 25 °C, ACES pH 7.4; antibody captured on anti-human IgG (Fc), chemokine injected at 5 nM and 20 nM
T4 construct: also called huCCL8
T4 sequence: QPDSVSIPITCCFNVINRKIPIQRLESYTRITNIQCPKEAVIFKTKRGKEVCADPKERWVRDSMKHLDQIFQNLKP
Protocol: (§1) Biacore assay method: The binding of anti-CCL2 antibodies to the CCL homologs e.g. CCL2 (MCP-1), CCL8 (MCP-2), CCL7 (MCP-3), and CCL13 (MCP-4) were assessed at 25° C. using Biacore T200 instrument (GE Healthcare). Mouse anti-human IgG (Fc) (GE Healthcare) was immobilized on each flow cells of a CM4 sensor chip using amine coupling kit (GE Healthcare) according to the recommended settings by the manufacturer. Antibodies and analytes were diluted into ACES pH 7.4 buffer (20 mM ACES, 150 mM NaCl, 1 mg/ml BSA, 0.05% Tween 20, 0.005% NaN3). Antibodies were captured onto the anti-Fc sensor surfaces, then recombinant human CCL homologs proteins was injected over the flow cell at 5 nM and 20 nM. […] Sensor surface was regenerated each cycle with 3M MgCl2. Binding sensorgram was processed using Biacore T200 Evaluation software, version 2.0 (GE Healthcare).

[5] = molecular target: T5, human CCL7 (MCP3) - wild type (wt) (human, UniProt P80098 24-99); assay: as above
T5 construct: Bought from R&D Systems for the homolog assay
Protocol: as §1

[6] = molecular target: T2, human CCL2 (MCP1) - wild type (wt); assay: cell-based or functional assay; remark: listed apart in the source
[7] = molecular target: T1, human CCL2 (MCP1) - P8A variant; assay: SPR T200, 37 C, antibody captured, 1:1 model
Protocol: (§2) Antibody clone supernatants were diluted 1:2 in system buffer and were captured for 1 min at 5 μl/min. […] Analyte kinetics were performed at 30 μl/min. As analyte in solution wt human CCL2 or monomeric CCL2 P8A variant CCL2 were used. Analytes were injected at 90 nM highest concentration. The analyte contact time was 3 min and the dissociation time was 10 min. The Biaevaluation software V.3.0 was used according to the instructions of the manufacturer GEHC. A 1:1 binding model with RMAX local was applied to apparently estimate kinetic rates.

[8] = molecular target: T2, human CCL2 (MCP1) - wild type (wt); assay: SPR T200, 37 C, antibody captured, 1:1 model
Protocol: as §2

[9] = molecular target: T1, human CCL2 (MCP1) - P8A variant; assay: number printed beside the row of sensorgrams; the assay and the CCL2 form behind the number are not stated on the sheet (the sensorgrams are on monomeric CCL2)

B1: 11K2H1503/11K2L1338 (antibody, V domains shown)
VH: QVQLVQSGAEVKKPGSSVKVSCKASGLTISHTYMHWVRQAPGQGLEWMGRIDPDNHNTKFDPKFQGRVTITADTSTSTAYMELSSLRSEDTAVYYCARGVFGFFDHWGQGTTVTVSS
VL: DIQMTQSPSSLSASVGDRVTITCKAFEDIYNRRAWYQQKPGKAPKLLIHGATSLEHGVPSRFSGSGSGTDYTLTISSLQPEDFATYYCQQFWSAPYTFGGGTKVEIK
notes: also called modified 11K2 variant (VH H1503 / VL L1338)
Affinity relative to parent 11K2 [1]: 0.2

B2: 11K2H1503/11K2L1201 (antibody, V domains shown)
VH: B1 VH
VL: B1 VL with F26T, R33L, W92R
notes: also called modified 11K2 variant (VH H1503 / VL L1201)
Affinity relative to parent 11K2 [1]: 0.05

B3: 11K2H1514/11K2L1338 (antibody, V domains shown)
VH: B1 VH with D54E, D105E
VL: B1 VL
notes: also called modified 11K2 variant (VH H1514 / VL L1338)
Affinity relative to parent 11K2 [1]: 0.02

B4: 11K2H1510/11K2L1338 (antibody, V domains shown)
VH: B1 VH with D105E
VL: B1 VL
notes: also called modified 11K2 variant (VH H1510 / VL L1338)
Affinity relative to parent 11K2 [1]: < 0.01

B5: CKLO2-SG1095 (=P1AD8325) (bispecific antibody)
heavy 1: DIQMTQSPSSLSASVGDRVTITCKAFEDIYNRRAWYQQKPGKAPKLLIHGATSLEHGVPSRFSGSGSGTDYTLTISSLQPEDFATYYCQQFWSAPYTFGGGTKVEIKSSASTKGPSVFPLAPSSKSTSGGTAALGCLVKDYFPEPVTVSWNSGALTSGVHTFPAVLQSSGLYSLSSVVTVPSSSLGTQTYICNVNHKPSNTKVDKKVEPKSCDKTHTCPPCPAPELWNGPSVFLFPPKPKDTLMISRTPEVTCVVVDVSDEDPEVKFNWYVDGVEVHNAKTKPREELYNSTYRVVSVLTVLHRDWLNGKEYKCKVSNTALPKPIEKTISKAKGQRREPQVYTLPPCRDELTKNQVSLWCLVKGFYPSDIAVEWESNGQPENNYKTTPPVLDSDGSFFLYSKLTVDKSRWQQGNVFSCSVMHEALHAHYTRKELSLSP
heavy 2: not shown
light 1: QVQLVQSGAEVKKPGSSVKVSCKASGLTISHTYMHWVRQAPGQGLEWMGRIDPDNHNTKFDPKFQGRVTITADTSTSTAYMELSSLRSEDTAVYYCARGVFGFFEHWGQGTTVTVSSASVAAPSVFIFPPSDEQLKSGTASVVCLLNNFYPREAKVQWKVDNALQSGNSQESVTEQDSKDSTYSLSSTLTLSKADYEKHKVYACEVTHQGLSSPVTKSFNRGEC
light 2: EIVLTQSPATLSLSPGERATLSCRASQHVSDAYLAWYQQKPGQAPRLLIYDASDRAEGVPARFSGSGSGTDFTLTISSLEPEDFAVYYCHQYIHLHSFTFGQGTKVEIKRTVAAPSVFIFPPSDRKLKSGTASVVCLLNNFYPREAKVQWKVDNALQSGNSQESVTEQDSKDSTYSLSSTLTLSKADYEKHKVYACEVTHQGLSSPVTKSFNRGEC
IC50, inhibition of THP-1 migration (chemotaxis assay) [2]: 0.2 µg/mL
Depletion level max (%) of CCL2 from the supernatant [3]: 85%
EC50 [nM] of CCL2 depletion [3]: 0.5 nM

B8: CNTO888H0625/CNTO888L0616 (antibody, V domains shown)
VH: QVQLVQSGAEVKKPGSSVKVSCKASGGTFSHYGISWVRQAPGQGLEWMGGIIHIFHTANYAQKFQGRVTITADESTSTAYMELSSLRSEDTAVYYCARYDAHYGELDFWGQGTLVTVSS
VL: EIVLTQSPATLSLSPGERATLSCRASQHVSDAYLAWYQQKPGQAPRLLIYDASDRAEGVPARFSGSGSGTDFTLTISSLEPEDFAVYYCHQYIHLHSFTFGQGTKVEIK
notes: also called modified CNTO888 variant (VH H0625 / VL L0616)
Affinity relative to parent CNTO888 [9]: 3 X

B9: CNTO888H0635/CNTO888L0616 (antibody, V domains shown)
VH: B8 VH with I51H, H56G
VL: B8 VL
notes: also called modified CNTO888 variant (VH H0635 / VL L0616)
Affinity relative to parent CNTO888 [9]: 3 X

B11: CNTO888H0634/CNTO888L0616 (antibody, V domains shown)
VH: B8 VH with I34T, H56G
VL: B8 VL
notes: also called modified CNTO888 variant (VH H0634 / VL L0616)
Affinity relative to parent CNTO888 [9]: 10 X

Results, then the binder that gave them:

binding result [4]: no binding (tested: 20 nM)
binding result [5]: binds
THP1 chemotaxis [fold change compared to IgG control] [6]: 3.6 fold
Kd [7]: 0.046 nM
T1/2 [7]: 137 min
Kd [8]: 0.024 nM
T1/2 [8]: 160 min
B6: 1A5 (antibody, IgG1, V domains shown)
VH: QEQLVESGGDLVKPEGSLTLTCTASGFSFSTSYWMCWVRQAPGKGLELIACISSSIGVTYYASWAEGRFTISKTSSTTVTLQMTSLTVADTATYFCARTTDDNWNVGFNLWGPGTLVTVSS
VL: AYDMTQTPASVEVGVGGTVTIKCQASQSIGNRYLSWYQQKPGQPPKLLIYGTSTLASGVSSRFKGSGSGTQFTLTISGVESADSATYYCQQGATISYLDNAFGGGTEVVVK
notes: also called CCL2-0009

binding result [4]: binds
binding result [5]: no binding (tested: 20 nM)
THP1 chemotaxis [fold change compared to IgG control] [6]: 0.9 fold
Kd [7]: 0.051 nM
T1/2 [7]: 218 min
Kd [8]: 0.062 nM
T1/2 [8]: 177 min
B7: 1G9 (antibody, IgG1, V domains shown)
VH: QSLEESGGDLVKPGASLTLTCKASGIDFSLYSYMCWVRQAPGKGLEWIACVDAGASGSTYYASWAKGRFTISKTSSTTVTLQMTSLTAADTATYFCARGILYYTWPYPAGAIDAFDSWGPGTLVTVSS
VL: AYDMTQTPASVSEPVGGTVTIKCQASESISNYLSWYQQKPGQPPKLLIYKASTLASGVPSRFKGSGSGTEYTVTISGVQSDDAATYYCQQSYSSSNVFNTFGGGTEVVVK
notes: also called CCL2-0010

Affinity relative to parent CNTO888 [9]: 1 X
B10: CNTO888H0695/CNTO888L0616 (antibody, V domains shown)
VH: B8 VH with I51V, H53P
VL: B8 VL
notes: also called modified CNTO888 variant (VH H0695 / VL L0616)

binding result [5]: no binding (tested: 20 nM)
B12: CNTO888 (antibody, V domains shown)
VH: B8 VH with H31S, H53P, H56G, A101G, H102I
VL: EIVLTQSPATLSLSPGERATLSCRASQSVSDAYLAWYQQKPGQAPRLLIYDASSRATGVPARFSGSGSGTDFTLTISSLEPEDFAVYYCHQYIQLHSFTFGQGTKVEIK
notes: IgG1 wild type with kappa light chain; also called CCL2-0004; CNTO888-IgG1
